# Measurements published in patent US20240229081.
# System: Nla type I-C Cascade-Cas3 in E. coli (Neisseria lactamica)
# Assay: cell_activity
# Settings: PAM TTC; E. coli plasmid interference
substance,measurement,value
"Nla native CRISPR spacer 1 crRNA ; spacer 1 target with TTC PAM, plasmid",activity,1000 fold
